Measurements taken from the supplement of paper PMC10724198.
± gives the standard deviation of the averaged measurements.

How the values were obtained:
[1] = tested on: Saccharomyces cerevisiae; assay: protein stability index of tFT-peptide fusion in deletion strain of DAS1 (PSI (0-1 scale)); higher = more stable (slower turnover)
Description: (§1)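 MPS profiling in S. cerevisiae of two library types built from selected 12-aa C-degron peptides (IN1, IN2, LN1, LN3, VN2, R1-R5, W1-W3, Atg1 and Rpa12 C-termini): saturation mutagenesis libraries and C-terminal +1 capping libraries (13 aa). Each peptide is fused to the C-terminus of a sfGFP-mCherry timer, after a GGGS linker. Cells are FACS-sorted into 8 mCherry/sfGFP bins and sequenced. PSI runs from 0 (unstable) to 1 (stable), measured once in wild type and in the das1Δ or doa10Δ background.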

[2] = tested on: Saccharomyces cerevisiae; assay: protein stability index of tFT-peptide fusion in wild type (PSI (0-1 scale)); higher = more stable (slower turnover); settings: genetic background: wild type
Description: as §1

[3] = tested on: Saccharomyces cerevisiae; assay: protein stability index of tFT-peptide fusion (C-terminal peptide) (PSI (0-1 scale)); higher = more stable (slower turnover); settings: temperature: 30 C
Description: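 MPS profiling in S. cerevisiae of the yeast C-terminome library: the last 12 aa of each annotated ORF are fused to the C-terminus of a sfGFP-mCherry timer, after a GGGS linker. Cells are FACS-sorted into 8 mCherry/sfGFP bins and deep-sequenced. PSI runs from 0 (unstable) to 1 (stable); wild type and das1Δ backgrounds, two technical replicates each.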

[4] = genetic background: das1 deletion
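Throughout, for protein stability index of tFT-peptide fusion in deletion strain of DAS1: PSI is a weighted mean of each variant's read distribution over the sorted stability bins, computed only for variants having over 10 reads in total.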
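Throughout, for protein stability index of tFT-peptide fusion in wild type: PSI derived as read-weighted mean over the 8 sorting bins, only variants exceeding 10 total reads kept, mCherry placed adjacent to the peptide and sfGFP distal.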

| Sequence | protein stability index [1] | protein stability index [2] | protein stability index [3, 4] | protein stability index ([3]; genetic background: wild type) |
| --- | --- | --- | --- | --- |
| AEWRVGLWRGAS | 0.689 | 0.528 |  |  |
| AHWRVGLWRGAS | 0.688 | 0.43 |  |  |
| ARIRVGLWRGAS | 0.686 | 0.599 |  |  |
| ARRRVGLWRGAS | 0.723 | 0.538 |  |  |
| ARWLVGLWRGAS | 0.706 | 0.419 |  |  |
| ARWRDGLWRGAS | 0.692 | 0.651 |  |  |
| ARWRVELWRGAS | 0.665 | 0.203 |  |  |
| ARWRVGAWRGAS | 0.688 | 0.427 |  |  |
| ARWRVGLVRGAS | 0.663 | 0.614 |  |  |
| ARWRVGLWHGAS | 0.665 | 0.624 |  |  |
| ARWRVGLWKGAS | 0.671 | 0.64 |  |  |
| ARWRVGLWQGAS | 0.578 | 0.602 |  |  |
| ARWRVGLWRGASG | 0.674 | 0.662 |  |  |
| ARWRVGLWRGASP | 0.672 | 0.663 |  |  |
| ARWRVGLWRKAS | 0.672 | 0.1 |  |  |
| ARWRVGLWRWAS | 0.694 | 0.0999 |  |  |
| ARWRVGSWRGAS | 0.692 | 0.641 |  |  |
| ARWRVQLWRGAS | 0.689 | 0.287 |  |  |
| ARWRVVLWRGAS | 0.621 | 0.517 |  |  |
| CHSCGYKFRTNN | 0.715 | 0.212 |  |  |
| CNSCGYKFRTNN | 0.702 | 0.193 |  |  |
| CQSCGYKFRTNN | 0.7 | 0.248 |  |  |
| CRWRVGLWRGAS | 0.697 | 0.276 |  |  |

| Sequence | protein stability index [1] | protein stability index [2] | protein stability index [3, 4] | protein stability index ([3]; genetic background: wild type) |
| --- | --- | --- | --- | --- |
| CSMRWTFRYWVN | 0.573 | 0.0623 |  |  |
| CTLCGYKFRTNN | 0.72 | 0.278 |  |  |
| CTSCGEKFRTNN | 0.666 | 0.523 |  |  |
| CTSCGIKFRTNN | 0.688 | 0.376 |  |  |
| CTSCGPKFRTNN | 0.674 | 0.598 |  |  |
| CTSCGYKDRTNN | 0.702 | 0.634 |  |  |
| CTSCGYKFGTNN | 0.693 | 0.688 |  |  |
| CTSCGYKFRPNN | 0.714 | 0.727 |  |  |
| CTSCGYKFRTLN | 0.696 | 0.132 |  |  |
| CTSCGYKFRTNL | 0.703 | 0.652 |  |  |
| CTSCGYKFRTNNC | 0.673 | 0.708 |  |  |
| CTSCGYKFRTNNT | 0.689 | 0.692 |  |  |
| CTSCGYKFVTNN | 0.692 | 0.495 |  |  |
| CTSCGYKTRTNN | 0.679 | 0.632 |  |  |
| CTSCGYKVRTNN | 0.693 | 0.388 |  |  |
| CTSCGYLFRTNN | 0.698 | 0.348 |  |  |
| CTSCGYYFRTNN | 0.697 | 0.283 |  |  |
| CTSCLYKFRTNN | 0.675 | 0.185 |  |  |
| CTSGGYKFRTNN | 0.673 | 0.551 |  |  |
| CTSNGYKFRTNN | 0.674 | 0.381 |  |  |
| CTSWGYKFRTNN | 0.744 | 0.137 |  |  |
| CTWCGYKFRTNN | 0.685 | 0.224 |  |  |
| DKILRQKMNHQN | 0.672 | 0.121 |  |  |

| Sequence | protein stability index [1] | protein stability index [2] | protein stability index [3, 4] | protein stability index ([3]; genetic background: wild type) |
| --- | --- | --- | --- | --- |
| ERGAVGGWRLVG | 0.675 | 0.168 |  |  |
| ESMRWTFRYWVN | 0.56 | 0.0849 |  |  |
| VKTLANEILNII [ECM11 C-terminal 12 aa] |  |  | 0.6687 ± 0.0062 | 0.711 ± 0.0092 |
| VLLTILLFIQAY [SPO19 C-terminal 12 aa] |  |  | 0.1801 ± 0.0012 | 0.19 ± 0.0039 |
| VLMLETIAYLFS [NFG1 C-terminal 12 aa] |  |  | 0.487 ± 0.022 | 0.5059 ± 0.0015 |
| VNNFKMFSNSSV [YIL115W-A C-terminal 12 aa] |  |  | 0.704 ± 0.027 | 0.765 ± 0.045 |
| VPDIPPPPALVA [NUP42 C-terminal 12 aa] |  |  | 0.632 ± 0.034 | 0.6989 ± 0.0048 |
| VPEEQRIKRRKI [IRC4 C-terminal 12 aa] |  |  | 0.705 ± 0.037 | 0.3 ± 0.035 |
| VPKSLYGVTRTR [GAT3 C-terminal 12 aa] |  |  | 0.697 ± 0.008 | 0.686 ± 0.032 |
| VPYAKILDQCIL [YGL230C C-terminal 12 aa] |  |  | 0.693 ± 0.027 | 0.721 ± 0.021 |
| VQNLIAAVMGEL [PNP1 C-terminal 12 aa] |  |  | 0.7186 ± 0.002 | 0.664 ± 0.024 |
| VRADDLSTRFNI [RRP43 C-terminal 12 aa] |  |  | 0.657 ± 0.0082 | 0.664 ± 0.017 |
| VSIYKPYTEESE [WTM1 C-terminal 12 aa] |  |  | 0.662 ± 0.0069 | 0.663 ± 0.027 |
| VSPYDYNHKRVS [DIB1 C-terminal 12 aa] |  |  | 0.69264 ± 0.00023 | 0.678 ± 0.035 |
| VTRAAESLGFTV [MIP6 C-terminal 12 aa] |  |  | 0.6997 ± 0.0036 | 0.69562 ± 4.2e-05 |
| VVAQKPKLPYTK [YBR225W C-terminal 12 aa] |  |  | 0.694 ± 0.026 | 0.725 ± 0.066 |
| VVNKYLKENGYY [APE2 C-terminal 12 aa] |  |  | 0.705 ± 0.02 | 0.6615 ± 0.0031 |
| VVVTGNLQILEH [UGP1 C-terminal 12 aa] |  |  | 0.678 ± 0.03 | 0.684 ± 0.019 |
| VYARDAAALRPV [SCS3 C-terminal 12 aa] |  |  | 0.716 ± 0.021 | 0.686 ± 0.03 |
| VYEVVCDSVRNW [MRX21 C-terminal 12 aa] |  |  | 0.692 ± 0.023 | 0.717 ± 0.0011 |
| VYEYIVNVNEYA [CPS1 C-terminal 12 aa] |  |  | 0.6949 ± 0.0031 | 0.682 ± 0.0094 |
| WEHAMRSRRHKR [SWC3 C-terminal 12 aa] |  |  | 0.726 ± 0.0012 | 0.673 ± 0.027 |
| WEKFIELEKNYK [MST1 C-terminal 12 aa] |  |  | 0.696 ± 0.0078 | 0.799 ± 0.04 |

| Sequence | protein stability index [1] | protein stability index [2] | protein stability index [3, 4] | protein stability index ([3]; genetic background: wild type) |
| --- | --- | --- | --- | --- |
| WHKHKTSSDKNI [YDR261C-D C-terminal 12 aa] |  |  | 0.733 ± 0.02 | 0.749 ± 0.012 |
| WKLAKLQIDEAL [SNX41 C-terminal 12 aa] |  |  | 0.693 ± 0.0081 | 0.6896 ± 0.0063 |
| WLSKSGSSAALP [TOS1 C-terminal 12 aa] |  |  | 0.717 ± 0.014 | 0.685 ± 0.022 |
| WQLVDNYESGYE [YGL194C-A C-terminal 12 aa] |  |  | 0.7087 ± 0.0048 | 0.648 ± 0.031 |
| WQTLVMILQESG [NPL4 C-terminal 12 aa] |  |  | 0.392 ± 0.0077 | 0.444 ± 0.021 |
| WTLLSRFLDREW [ATG36 C-terminal 12 aa] |  |  | 0.684 ± 0.015 | 0.6939 ± 0.0011 |
| WVDAFGIIYGAL [YIL108W C-terminal 12 aa] |  |  | 0.7436 ± 0.0063 | 0.7232 ± 0.0018 |
| YALKRNAFKLLK [CRD1 C-terminal 12 aa] |  |  | 0.682 ± 0.011 | 0.691 ± 0.02 |
| YDLEAGENKFNF [URA7 C-terminal 12 aa] |  |  | 0.7022 ± 0.0022 | 0.703 ± 0.0099 |
| YEKVVELWNKVV [MNT4 C-terminal 12 aa] |  |  | 0.701 ± 0.018 | 0.199 ± 0.0098 |
| YEPTDWECTDAP [YJR096W C-terminal 12 aa] |  |  | 0.7254 ± 0.0027 | 0.708 ± 0.06 |
| YITTPSSSGHAL [YIL141W C-terminal 12 aa] |  |  | 0.716 ± 0.0081 | 0.674 ± 0.027 |
| YKIKKQPRKKQQ [HST1 C-terminal 12 aa] |  |  | 0.739 ± 0.015 | 0.708 ± 0.081 |
| YKLGPGEDTATK [DPL1 C-terminal 12 aa] |  |  | 0.707 ± 0.023 | 0.702 ± 0.032 |
| YLALKWIVVEQK [ADP1 C-terminal 12 aa] |  |  | 0.521 ± 0.021 | 0.573 ± 0.018 |
| YLEHQQIHGRVV [YHR145C C-terminal 12 aa] |  |  | 0.679 ± 0.017 | 0.691 ± 0.013 |
| YLKNYFKTKHII [ERV25 C-terminal 12 aa] |  |  | 0.702 ± 0.018 | 0.185 ± 0.0056 |
| YLTFYKSPKTFY [YDR183C-A C-terminal 12 aa] |  |  | 0.71 ± 0.037 | 0.637 ± 0.055 |
| YNSDSGSYYTLM [YOR192C-C C-terminal 12 aa] |  |  | 0.704 ± 0.017 | 0.731 ± 0.097 |
| YPGEAKRPQERF [COX10 C-terminal 12 aa] |  |  | 0.6898 ± 0.0058 | 0.7 ± 0.047 |
| YSDTIWNVEPVT [GPH1 C-terminal 12 aa] |  |  | 0.729 ± 0.015 | 0.73 ± 0.018 |
| YSKHLKRLLPYH [MRP35 C-terminal 12 aa] |  |  | 0.6788 ± 0.0019 | 0.712 ± 0.071 |
| YTNLIASKVKKQ [YKL177W C-terminal 12 aa] |  |  | 0.714 ± 0.036 | 0.6504 ± 0.0044 |
